Data: patent US20140179896A1 (published 2014)

Key:
[1] = biological target: T1, human vascular endothelial growth factor receptor-2 Fc chimera (KDR-Fc) (human, UniProt P35968 20-764); test: binding to 1 nM KDR-Fc, % of input; radioactive equilibrium binding (assay not given)
T1 construct: range 1-764; also called human VEGFR-2; hKDR; not shown: human IgG1 Fc
Method: (§1) To prepare ³⁵S-labeled binding proteins for analysis, mRNA was prepared as described above for RNA-protein fusion production but the linker ligation step was omitted. The mRNA was expressed using rabbit reticulocyte lysate translation kit (Ambion) in the presence of ³⁵S-labeled Met at 30° C. for 1 hour. Expressed protein was purified on M2-agarose Flag beads (Sigma) as described above. This procedure produced the encoded protein without the nucleic acid tail. In a direct binding assay, VEGF-R2-Fc fusions in concentrations ranging from 0 to 200 nM were added to a constant concentration of the purified protein (0.2 or 0.5 nM) and incubated at 30° C. for 1 hour in buffer B. The receptor-binder complexes were captured using Protein A magnetic beads for another 10 minutes at room temperature using a Kingfisher™ The beads were washed with six reaction volumes of buffer B. The protein was eluted from the beads with 100 μL of 0.1 M KOH. […] of the reaction mixture and elution were dried onto a LumaPlate-96 (Packard) and the amount of ³⁵S on the plate was measured using a TopCount NXT instrument (Packard). The amount of fibronectin-based scaffold protein bound to the target was estimated as a percent of radioactivity eluted from Protein A magnetic beads compare to radioactivity in the reaction mixture. Nonspecific binding of fibronectin-based scaffold proteins to the beads was determined by measuring binding in the absence of KDR-Fc and represented less than 1-2% of the input. Specific binding was obtained through subtraction of nonspecific binding from total binding. Data was analyzed using the GraphPad Prizm software (GraphPad Software, Inc, San Diego, Calif.), fitted using a one site, non-linear binding equation.
T1 sequence (P35968 20-764 limits assumed, change not shown, form in doubt): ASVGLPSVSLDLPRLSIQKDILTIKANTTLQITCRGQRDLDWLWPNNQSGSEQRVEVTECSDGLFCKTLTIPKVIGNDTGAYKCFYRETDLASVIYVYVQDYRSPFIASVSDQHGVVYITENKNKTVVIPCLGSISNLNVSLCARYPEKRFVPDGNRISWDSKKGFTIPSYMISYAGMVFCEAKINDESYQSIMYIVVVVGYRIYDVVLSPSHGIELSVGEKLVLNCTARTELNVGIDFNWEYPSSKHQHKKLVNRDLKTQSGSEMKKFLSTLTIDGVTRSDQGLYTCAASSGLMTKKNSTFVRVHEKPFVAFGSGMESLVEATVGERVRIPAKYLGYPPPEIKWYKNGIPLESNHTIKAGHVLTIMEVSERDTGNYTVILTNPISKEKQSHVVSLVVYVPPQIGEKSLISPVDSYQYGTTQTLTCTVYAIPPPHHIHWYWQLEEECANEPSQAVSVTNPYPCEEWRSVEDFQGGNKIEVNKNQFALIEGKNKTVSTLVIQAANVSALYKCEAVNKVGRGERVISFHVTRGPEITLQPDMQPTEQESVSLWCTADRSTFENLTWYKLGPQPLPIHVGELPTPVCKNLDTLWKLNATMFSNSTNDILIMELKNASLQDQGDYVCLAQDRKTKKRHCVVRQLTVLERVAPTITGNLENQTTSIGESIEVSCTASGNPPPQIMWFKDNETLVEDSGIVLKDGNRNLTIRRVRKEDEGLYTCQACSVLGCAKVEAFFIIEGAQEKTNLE

[2] = biological target: T2, mouse vascular endothelial growth factor receptor-2 Fc chimera (Flk-1-Fc) (mouse, UniProt P35918 20-762); test: binding to 1 nM Flk-1-Fc, % of input; radioactive equilibrium binding (assay not given)
T2 construct: Purchased from R&D Systems; also called mouse VEGF-R2; not shown: Fc part of the purchased chimera
Method: as §1

[3] = biological target: T3, human vascular endothelial growth factor receptor-2 Fc chimera (KDR-Fc) (human, UniProt P35968 20-764); test: radioactive equilibrium binding, KDR-Fc
T3 construct: range 1-764; also called human VEGFR-2; VEGF-R2-Fc; not shown: human IgG1 Fc
Method: as §1
T3 sequence (P35968 20-764 limits assumed, change not shown, form in doubt): as above

[4] = biological target: T3, human vascular endothelial growth …; test: radioactive equilibrium binding, 1 nM KDR-Fc
Procedure, shortened: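 Tracer: ³⁵S-Met protein from reticulocyte lysate, Flag-bead purified, no nucleic acid tail. 0.2/0.5 nM binder + 0–200 nM receptor-Fc, 30° C 1 h, buffer B; Protein A bead capture 10 min RT; 0.1 M KOH elution; scintillation count.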

[5] = biological target: T1, human vascular endothelial growth …; test: radioactive equilibrium binding (assay not given)
Method: as §1

T2 sequence (P35918 20-762, change not shown): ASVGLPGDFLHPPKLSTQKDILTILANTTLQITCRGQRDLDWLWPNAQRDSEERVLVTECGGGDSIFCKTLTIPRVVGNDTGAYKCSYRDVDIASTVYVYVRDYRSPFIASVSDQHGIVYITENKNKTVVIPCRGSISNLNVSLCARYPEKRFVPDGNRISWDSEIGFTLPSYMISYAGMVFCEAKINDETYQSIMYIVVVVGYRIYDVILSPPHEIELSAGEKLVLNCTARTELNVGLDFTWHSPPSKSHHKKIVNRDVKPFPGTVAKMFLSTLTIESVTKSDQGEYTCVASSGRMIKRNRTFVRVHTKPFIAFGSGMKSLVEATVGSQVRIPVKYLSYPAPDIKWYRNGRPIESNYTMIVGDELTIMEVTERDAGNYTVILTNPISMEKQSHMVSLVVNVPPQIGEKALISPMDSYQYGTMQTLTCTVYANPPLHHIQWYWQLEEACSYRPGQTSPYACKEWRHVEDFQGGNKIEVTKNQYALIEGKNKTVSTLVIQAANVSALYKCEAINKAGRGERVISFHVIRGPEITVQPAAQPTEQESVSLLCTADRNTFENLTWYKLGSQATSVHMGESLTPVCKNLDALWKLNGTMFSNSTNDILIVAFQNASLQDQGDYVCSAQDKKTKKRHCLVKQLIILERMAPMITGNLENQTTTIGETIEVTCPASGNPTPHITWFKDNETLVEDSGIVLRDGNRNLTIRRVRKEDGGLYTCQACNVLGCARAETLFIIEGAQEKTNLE

| Binder | Binding to 1 nM KDR, % [1] [%] | Binding to 1 nM FLK, % [2] [%] | Kd [3] [pM] | Binding to 1 nM KDR, % [4] [%] | Kd [5] [pM] |
| --- | --- | --- | --- | --- | --- |
| E8 (designed binder, Del 1-8 10Fn3 clone; Flag tag of the radioactive-assay form not included) EVVAATPTSLLISWRHPHFPTRYYRITYGETGGNSPVQEFTVPLQPPTATISGLKPGVDYTITGYAVTEEWNGRVLMTPISINYRT | 51 | 10 | – | – | – |
| K11 (designed binder, Del 1-8 10Fn3 clone; Flag tag of the assay form not included) EVVAATPTSLLISWRHPHFPTRYYRITYGETGGNSPVQEFTVPLQPPTATISGLKPGVDYTITGYAVTQAPNDRVLYTPISINYRT | 24 | – | – | – | 1160 |
| K3 (designed binder, Del 1-8) EVVAATPTSLLISWRHPHFPTRYYRITYGETGGNSPVQEFTVPLQPPTATISGLKPGVDYTITGYAVTAGWDDHELFIPISINYRT | – | – | 1150 | 45 | – |
| K12 (designed binder, Del 1-8) EVVAATPTSLLISWRHPHFPTRYYRITYGETGGNSPVQEFTVPLQPPTATISGLKPGVDYTITGYAVTDVYNDHEIKTPISINYRT | – | – | 620 | 29 | – |
| K1 (designed binder, Del 1-8) EVVAATPTSLLISWRHPHFPTRYYRITYGETGGNSPVQEFTVPLQPPTATISGLKPGVDYTITGYAVTMGLYGHELLTPISINYRT | – | – | 550 | 48 | – |
| K11 (designed binder, Del 1-8) EVVAATPTSLLISWRHPHFPTRYYRITYGETGGNSPVQEFTVPLQPPTATISGLKPGVDYTITGYAVTQAPNDRVLYTPISINYRT | – | – | 1160 | 24 | – |
| K6 (designed binder, Del 1-8) EVVAATPTSLLISWRHPHFPTRYYRITYGETGGNSPVQEFTVPLQPPTATISGLKPGVDYTITGYAVTDGKDGRVLLTPISINYRT | – | – | 930 | 27 | – |
| K4 (designed binder, Del 1-8) EVVAATPTSLLISWRHPHFPTRYYRITYGETGGNSPVQEFTVPLQPPTATISGLKPGVDYTITGYAVTAGYNDQILMTPISINYRT | – | – | 1950 | 38 | – |
| K8 (designed binder, Del 1-8; 279 used) EVVAATPTSLLISWRHPHFPTRYYRITYGETGGNSPVQEFTVPLQPPTATISGLKPGVDYTITGYAVTVTHNGHPLMTPISINYRT | – | – | 3300 | 18 | – |
| K10 (designed binder, Del 1-8) EVVAATPTSLLISWRHPHFPTRYYRITYGETGGNSPVQEFTVPLQPPTATISGLKPGVDYTITGYAVTTGPNDRLLFVPISINYRT | – | – | 570 | 33 | – |
| K7 (designed binder, Del 1-8) EVVAATPTSLLISWRHPHFPTRYYRITYGETGGNSPVQEFTVPLQPPTATISGLKPGVDYTITGYAVTSGHNDHMLMIPISINYRT | – | – | 2200 | 40 | – |
| K5 (designed binder, Del 1-8) EVVAATPTSLLISWRHPHFPTRYYRITYGETGGNSPVQEFTVPLQPPTATISGLKPGVDYTITGYAVTMGPNDNELLTPISINYRT | – | – | 1540 | 47 | – |
| K10 (designed binder, Del 1-8 10Fn3 clone; Flag tag of the assay form not included) EVVAATPTSLLISWRHPHFPTRYYRITYGETGGNSPVQEFTVPLQPPTATISGLKPGVDYTITGYAVTTGPNDRLLFVPISINYRT | 33 | – | – | – | 570 |
| K9 (designed binder, Del 1-8) EVVAATPTSLLISWRHPHFPTRYYRITYGETGGNSPVQEFTVPLQPPTATISGLKPGVDYTITGYAVTFGLYGKELLIPISINYRT | – | – | 1800 | 35 | – |
| K2 (designed binder, Del 1-8) EVVAATPTSLLISWRHPHFPTRYYRITYGETGGNSPVQEFTVPLQPPTATISGLKPGVDYTITGYAVTDGENGQFLLVPISINYRT | – | – | 1190 | 48 | – |

Further lines, results first:

| Binding to 1 nM KDR, % [1] [%] | Binding to 1 nM FLK, % [2] [%] | Kd [3] [pM] | Binding to 1 nM KDR, % [4] [%] | Kd [5] [pM] | Binder |
| --- | --- | --- | --- | --- | --- |
| 33 | 11 | – | – | – | E14 (designed binder, Del 1-8 10Fn3 clone; Flag tag of the radioactive-assay form not included) EVVAATPTSLLISWRHPHFPTRYYRITYGETGGNSPVQEFTVPLQPPTATISGLKPGVDYTITGYAVTLERNGQVLFTPISINYRT |
| 43 | 11 | – | – | – | E20 (designed binder, Del 1-8 10Fn3 clone; Flag tag of the radioactive-assay form not included) EVVAATPTSLLISWRHPHFPTRYYRITYGETGGNSPVQEFTVPLQPPTATISGLKPGVDYTITGYAVTVERNGQVLYTPISINYRT |
| – | – | 350 | 25 | – | K15 (designed binder, Del 1-8) EVVAATPTSLLISWRHPHFPTRYYRITYGETGGNSPVQEFTVPLQPPTATISGLKPGVDYTITGYAVTEVHHDREIKTPISINYRT |
| 25 | – | – | – | 350 | K15 (designed binder, Del 1-8 10Fn3 clone; Flag tag of the assay form not included) EVVAATPTSLLISWRHPHFPTRYYRITYGETGGNSPVQEFTVPLQPPTATISGLKPGVDYTITGYAVTEVHHDREIKTPISINYRT |
| 32 | 10 | – | – | – | E17 (designed binder, Del 1-8 10Fn3 clone; Flag tag of the radioactive-assay form not included) EVVAATPTSLLISWRHPHFPTRYYRITYGETGGNSPVQEFTVPLQPPTATISGLKPGVDYTITGYAVTVEENGRVLNTPISINYRT |
| 35 | 0 | – | – | – | E16 (designed binder, Del 1-8 10Fn3 clone; Flag tag of the radioactive-assay form not included) EVVAATPTSLLISWRHPHFPTRYYRITYGETGGNSPVQEFTVPLQPPTATISGLKPGVDYTITGYAVTVEENGRQLMTPISINYRT |
| 37 | 9 | – | – | – | E27 (designed binder, Del 1-8 10Fn3 clone; Flag tag of the radioactive-assay form not included) EVVAATPTSLLISWRHPHFPTRYYRITYGETGGNSPVQEFTVPLQPPTATISGLKPGVDYTITGYAVTVERNGHTLMTPISINYRT |
| 20 | – | – | – | 570 | K14 (designed binder, Del 1-8 10Fn3 clone; Flag tag of the assay form not included) EVVAATPTSLLISWRHPHFPTRYYRITYGETGGNSPVQEFTVPLQPPTATISGLKPGVDYTITGYAVTREENDHELLIPISINYRT |
| 17 | – | – | – | 580 | K13 (designed binder, Del 1-8 10Fn3 clone; Flag tag of the assay form not included) EVVAATPTSLLISWRHPHFPTRYYRITYGETGGNSPVQEFTVPLQPPTATISGLKPGVDYTITGYAVTLALKGHELLTPISINYRT |
| 29 | – | – | – | 620 | K12 (designed binder, Del 1-8 10Fn3 clone; Flag tag of the assay form not included) EVVAATPTSLLISWRHPHFPTRYYRITYGETGGNSPVQEFTVPLQPPTATISGLKPGVDYTITGYAVTDVYNDHEIKTPISINYRT |
| 24 | 29 | – | – | – | E24 (designed binder, Del 1-8 10Fn3 clone; Flag tag of the radioactive-assay form not included) EVVAATPTSLLISWRHPHFPTRYYRITYGETGGNSPVQEFTVPLQPPTATISGLKPGVDYTITGYAVTVERNDRVLFTPISINYRT |
| – | – | 570 | 20 | – | K14 (designed binder, Del 1-8) EVVAATPTSLLISWRHPHFPTRYYRITYGETGGNSPVQEFTVPLQPPTATISGLKPGVDYTITGYAVTREENDHELLIPISINYRT |
| – | – | 580 | 17 | – | K13 (designed binder, Del 1-8; 246 used) EVVAATPTSLLISWRHPHFPTRYYRITYGETGGNSPVQEFTVPLQPPTATISGLKPGVDYTITGYAVTLALKGHELLTPISINYRT |
| 36 | 7 | – | – | – | E23 (designed binder, Del 1-8 10Fn3 clone; Flag tag not included) EVVAATPTSLLISWRHHPHFPTRYYRITYGETGGNSPVQEFTVPLQPPTATISGLKPGVDYTITGYAVTVHWNGRELMTPISINYRT |
